Data published in PMC3025356, “Mechanism of the Ca^2+-Dependent Interaction between S100A4 and Tail Fragments of Nonmuscle Myosin Heavy Chain IIA” (Journal of Molecular Biology, 2011).
Entries after “also recorded” stand apart in the source; their conditions may differ.

Tests used:
S100A4 = target: T1, S100A4 (Homo sapiens, UniProt P26447); test: Quin-2 fluorescence, Ca^2+ dissociation from S100A4 in the presence of target peptides; type: binding
T1 construct: We used full-length S100A4 for this analysis; made in house; host or cells: Escherichia coli BL21(DE3)
Method: Ca^2+ dissociation measurements for wild-type S100A4, using Quin-2 as described above, were repeated as a control for the effect of target peptides on this process. On mixing 10 μM S100A4 in the presence of Ca^2+ with 100 μM Quin-2, the observed profile was fitted to a single exponential with kobs = 17 s^− 1 (Fig. 5a; cf. k− 1 in Scheme 1).
Fig. 5 Dissociation of Ca^2+ from S100A4 in the absence and in the presence of target peptides monitored using Quin-2 fluorescence. (a) Mixed with 100 μM Quin-2 was 10 μM S100A4 + 50 μM Ca^2+ (stopped-flow reaction chamber concentrations). A superposed fit to a single exponential yields kobs = 17 s^− 1. […] (d) As in (a), but with 2.5 μM M200 premixed with 5 μM S100A4. A biphasic exponential fit yielded rate constants of 13 s^− 1 (A = 26%) and 0.30 s^− 1 (A = 74%). […] Experiments were carried out in either 20 mM NaCl, 20 mM Tris, 1 mM DTT, and 100 μM Ca^2+ at pH 7.5 and 20 °C (a and b; cf. Malashkevich et al.[17]), or 100 mM NaCl, 10 mM Hepes, and 100 μM Ca^2+ at pH 7.5 and 20 °C (c and d). […] Rate constants were unaffected by the inclusion of 1 mM Mg^2+.
Stopped-flow measurements were carried out using an SX18-MV apparatus (Applied Photophysics Ltd., Leatherhead, UK) with a dead time of 1.5 ms.[40] Records were generally captured on a logarithmic time base. Absorption (turbidity) measurements were usually recorded using a 10-mm pathlength, while fluorescence was recorded with a 2-mm pathlength for excitation and emission. The stated concentrations of components refer to the reaction chamber after mixing, unless otherwise indicated. Tyrosine fluorescence was excited at 280 nm, and the emission was collected through a UG11 bandpass filter plus a 305-nm longpass filter.[18] Fluorescein fluorescence was excited at 480 nm, and the emission was detected through a 515-nm longpass filter. Quin-2 fluorescence was measured by excitation at 336 nm, and emission was collected with a 455-nm longpass filter. For simultaneous recording of light scatter, a second channel was monitored through a UG11 filter. Rate constants were obtained by fitting to single-exponential or double-exponential functions using Kaleidagraph (Synergy Software) or Applied Photophysics Pro-Data software. Modeling of kinetic schemes was performed using Berkeley Madonna software.

[1] = CD / helical stability of M111; type: physicochemical; conditions: 0.05 mM protein
Method: CD spectra were measured on a JASCO J-715 spectropolarimeter equipped with a JASCO PTC-348WI temperature-controlled unit at 0.05 mM protein solutions using a 1-mm pathlength microcuvette.

[2] = increasing concentrations of M111

T1 sequence (P26447 whole entry): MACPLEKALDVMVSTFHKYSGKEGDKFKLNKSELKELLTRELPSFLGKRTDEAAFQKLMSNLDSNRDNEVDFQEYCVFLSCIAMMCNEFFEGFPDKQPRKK

B1: M111: His-tagged human NM-MHC IIA residues 1850-1960, V1913I substitution (protein, UniProt P35579 1850-1960, looked up, variant V1913I)
chain: QVDDERRNAEQYKDQADKASTRLKQLKRQLEEAEEEAQRANASRRKLQRELEDATETADAMNREISSLKNKLRRGDLPFVVPRRMARKGAGDGSDEEVDGKADGAEAKPAE
modifications: His tag
notes: His-tagged human NM-MHC IIA residues 1850-1960, V1913I substitution
- fast-phase amplitude (S100A4; 5 μM M111, 10 μM S100A4): 6%
- slow-phase amplitude (S100A4; 5 μM M111, 10 μM S100A4): 94%
- slow-phase rate constant (S100A4; 5 μM M111, 10 μM S100A4, 50 μM Ca^2+, 100 μM Quin-2): 0.36 s⁻¹
- fast-phase rate constant (S100A4; 5 μM M111, 10 μM S100A4, 50 μM Ca^2+, 100 μM Quin-2, residual unbound S100A4): 21 s⁻¹
- slower release of Ca^2+ (S100A4; in presence of coiled-coil fragments): 0.3–0.5 s^− 1
- fast-phase rate constant (S100A4; [2]): 20 s^− 1
- slow-phase rate constant (S100A4; [2]): 0.4 s^− 1
- Ca^2+ dissociation rate constant from complex (k− 3), comparison (S100A4; peptide–S100A4–Ca^2+ complex): 0.3 s^− 1
- helical structure stability [1]: high helical content detected for the fragment by CD below 20 °C; also recorded: only marginally stable at 20 °C
